According to patent US20210269480A1 (published 2021):
*1 amine or outer side, *2 acyl side, *3 side chain or, on linkers, in order; H or OH if unused. Bridges are numbered along the chain shown (N, C = ends). Primed or numbered codes have the meaning given here. Where no end group is shown, it is not given here. [ ]: non-standard residue; d: D form. TATA = O=C(CC[*:1])N1CN(C(=O)CC[*:2])CN(C(=O)CC[*:3])C1; 1Nal = N[C@@H](Cc1cccc2ccccc12)C(=O)O; Glutaryl = O=C(CCCC(=O)[*:2])[*:1]; K(Fl) = lysine bearing fluorescein; Hyp = O=C(O)[C@@H]1C[C@@H](O)CN1; hArg = N=C(N)NCCCC[C@H](N)C(=O)O; Cit = NC(=O)NCCC[C@H](N)C(=O)O; MMAE = monomethyl auristatin E; PABC′ = p-aminobenzylcarbamate; βAla = NCCC(=O)O; Sar = CNCC(=O)O

Columns and labels:
human Nectin-4 = biological target: T1, human Nectin-4 (human, UniProt Q96NY8 32-349); test: FP direct binding
T1 construct: a Gly32-Ser349 FLAG construct is described only under the SPR assay; also called PVRL4
T1 sequence (looked up): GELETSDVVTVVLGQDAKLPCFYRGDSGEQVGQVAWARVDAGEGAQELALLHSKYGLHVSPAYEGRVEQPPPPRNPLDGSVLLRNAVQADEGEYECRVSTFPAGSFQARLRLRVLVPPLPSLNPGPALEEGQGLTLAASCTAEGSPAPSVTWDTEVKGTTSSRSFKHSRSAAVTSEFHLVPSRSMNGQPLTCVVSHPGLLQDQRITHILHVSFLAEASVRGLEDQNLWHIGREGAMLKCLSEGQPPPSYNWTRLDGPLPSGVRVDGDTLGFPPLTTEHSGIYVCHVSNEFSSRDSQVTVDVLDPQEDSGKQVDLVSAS
Method: Affinity of the peptides of the invention for human Nectin-4 (Ki) was determined using a fluorescence polarisation assay, in accordance with the methods disclosed in WO 2016/067035. […] Measurements were conducted on a BMG PHERAstar FS equipped with an “FP 485 520 520” optic module which excites at 485 nm and detects parallel and perpendicular emission at 520 nm. The PHERAstar FS was set at 25° C. with 200 flashes per well and a positioning delay of 0.1 second, with each well measured at 5 to 10 minute intervals for 60 minutes. […] Data was analysed using Systat Sigmaplot version 12.0. mP values were fit to a user defined quadratic equation to generate a Kd value: f=ymin+(ymax−ymin)/Lig*((x+Lig+Kd)/2-sqrt((((x+Lig+Kd)/2)\hat{ }2)-(Lig*x))).

[1] = biological target: T2, Nectin-4 on MDA-MB-468 cells (human, UniProt Q96NY8 32-510); test: HCS assay on MDA-MB-468 cells, bound agent detected with fluorescent antibody to MMAE
T2 construct: whole, on cells; also called PVRL4; PVRL-4
T2 sequence (looked up): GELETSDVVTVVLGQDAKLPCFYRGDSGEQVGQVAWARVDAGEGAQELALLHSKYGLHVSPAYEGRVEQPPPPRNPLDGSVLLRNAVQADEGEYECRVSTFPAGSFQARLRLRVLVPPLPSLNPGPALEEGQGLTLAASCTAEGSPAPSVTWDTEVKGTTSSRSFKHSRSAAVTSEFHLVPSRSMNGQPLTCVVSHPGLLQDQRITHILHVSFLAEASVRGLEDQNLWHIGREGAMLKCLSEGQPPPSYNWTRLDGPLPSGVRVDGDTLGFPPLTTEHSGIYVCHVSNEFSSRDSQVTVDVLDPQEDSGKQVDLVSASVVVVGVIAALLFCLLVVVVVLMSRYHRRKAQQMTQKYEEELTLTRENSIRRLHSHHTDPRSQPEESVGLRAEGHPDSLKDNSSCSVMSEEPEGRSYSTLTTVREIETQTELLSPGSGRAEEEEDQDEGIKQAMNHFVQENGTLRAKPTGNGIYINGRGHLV
Method: HCS assay was used in Nectin-4 BDC binding study. Cells were incubated with test agent and then washed. Detection was by a fluorescent antibody to MMAE.

[2] = biological target: T2, Nectin-4 on MDA-MB-468 cells; test: column 'Historical Kd (nM)' of the HCS table; method of the historical value not stated

Binder	Kd (human Nectin-4) [nM]	Kd [1] [nM]	Kd [2] [nM]
ACPFGCHTDWSWPIWCA[Sar][Sar][Sar][Sar][Sar][Sar]-{K(Fl)} (linker 2-6-16 via TATA, also called fluorescent peptide; tracer) [ACPFGCHTDWSWPIWCA-Sar6-K(Fl) (SEQ ID NO: 217)]	5		
{MMAE-PABC′-Cit-Val-Glutaryl-βAla}-[Sar][Sar][Sar][Sar][Sar][Sar][Sar][Sar][Sar][Sar]CP[1Nal][dD]CM[hArg]DWSTP[Hyp]WC (linker 11-15-25 via TATA, also called BT8009) [BCY8245 (MMAE-PABC-Cit-Val-Glutaryl-BCY8234)]		3.52	5.18
